Legend:
[1] = target: His-MoSPAB1ΔSP (Magnaporthe oryzae) (UniProt G4N0C3); test: pull-down; conditions: buffer not stated
GST-MYBS1 (rice) = test: pull-down; conditions: buffer not stated

Substance: Bsr-d1 promoter 1689 bp
- binding signal (fold of bound MoSPAB1ΔSP) [1]: 1.11
- binding signal (fold of bound GST-MYBS1) (GST-MYBS1 (rice)): 0.65

Reference: article PMC10728069
